Sequences and labels used below:
B1: CB-8 (antibody, V domains shown)
VH: EVQLVQSGAEVKKPGASVKVSCKASGYTFTSYGISWVRQAPGQGLEWMGWISAYNGNTNYAQKLQGRVTMTTDTSTSTAYMELRSLRSDDTAVYYCATLYGSGSLYYWGQGTLVTVSS
VL: DIVMTQSPSSLSAPVGDRVTITCQASQDIRNYINWFQQKPGKAPKLLIYAASSLQSGVPSRFSGSGSGTDFTLTISSLQPEDFATYYCQQSYSTPQWTFGQGTKVEIK
B2: CB-8-24 (antibody, V domains shown)
VH: EVQLVQSGAEVKKPGASVKVSCKASGYTFTSYGISWVRQAPGQGLEWMGWISAYNGNTNYAQKLQGRVTMTTDTSTSTAYMELRSLRSDDTAVYYCATLLPSGSLYYWGQGTLVTVSS
VL: DIVMTQSPSSLSAPVGDRVTITCQASQDIRNYINWFQQKPGKAPKLLIYAASSLQSGVPSRFSGSGSGTDFTLTISSLQPEDFATYYCQQSYSTPQWTFGQGTKVEIK
B3: CB-8-37 (antibody, human IgG1, V domains shown)
VH: EVQLVQSGAEVKKPGASVKVSCKASGYAFTSYGISWVRQAPGQGLEWMGWISAYSGNTNYAQKLQGRVTMTTDTSTSTAYMELRSLRSDDTAVYYCATLYGSGSLYYWGQGTLVTVSS
VL: DIVMTQSPSSLSAPVGDRVTITCQASQDIRNYINWFQQKPGKAPKLLIYAASFLQSGVPSRFSGSGSGTDFTLTISSLQPEDFATYYCQQSYSTPQWTFGQGTKVEIK
B4: CB-8-26 (antibody, human IgG1, V domains shown)
VH: EVQLVQSGAEVKKPGASVKVSCKASGYTFKSYGISWVRQAPGQGLEWMGWISAYNGRTNYAQKLQGRVTMTTDTSTSTAYMELRSLRSDDTAVYYCATLYGSGSLYYWGQGTLVTVSS
VL: DIVMTQSPSSLSAPVGDRVTITCQASQDIRNYINWFQQKPGKAPKLLIYAASGLQSGVPSRFSGSGSGTDFTLTISSLQPEDFATYYCQQSYSTPQWTFGQGTKVEIK
B5: CB-8-23 (antibody, human IgG1, V domains shown)
VH: EVQLVQSGAEVKKPGASVKVSCKASGYTFTSGGISWVRQAPGQGLEWMGWISAYNGRTNYAQKLQGRVTMTTDTSTSTAYMELRSLRSDDTAVYYCATLYGSGSLYYWGQGTLVTVSS
VL: DIVMTQSPSSLSAPVGDRVTITCQASQDIRNYINWFQQKPGKAPKLLIYAASFLQSGVPSRFSGSGSGTDFTLTISSLQPEDFATYYCQQSYSTPQWTFGQGTKVEIK
B6: CB-8-14 (antibody, human IgG1, V domains shown)
VH: EVQLVQSGAEVKKPGASVKVSCKASGYTFRSYGISWVRQAPGQGLEWMGWISAYTGNTNYAQKLQGRVTMTTDTSTSTAYMELRSLRSDDTAVYYCATLYGSGSLYYWGQGTLVTVSS
VL: DIVMTQSPSSLSAPVGDRVTITCQASQDIRNYINWFQQKPGKAPKLLIYAASSRQSGVPSRFSGSGSGTDFTLTISSLQPEDFATYYCQQSYSTPQWTFGQGTKVEIK
B7: CB-8-40 (antibody, human IgG1, V domains shown)
VH: EVQLVQSGAEVKKPGASVKVSCKASGYTFTSYGISWVRQAPGQGLEWMGWISAYSGNTNYAQKLQGRVTMTTDTSTSTAYMELRSLRSDDTAVYYCATLYGSGSLYYWGQGTLVTVSS
VL: DIVMTQSPSSLSAPVGDRVTITCQASQDIRNYINWFQQKPGKAPKLLIYAASYLQSGVPSRFSGSGSGTDFTLTISSLQPEDFATYYCQQSYSTPQWTFGQGTKVEIK
B8: CB-8-13 (antibody, human IgG1, V domains shown)
VH: EVQLVQSGAEVKKPGASVKVSCKASGYRFTSYGISWVRQAPGQGLEWMGWISAYNGRTNYAQKLQGRVTMTTDTSTSTAYMELRSLRSDDTAVYYCATLYGSGSLYYWGQGTLVTVSS
VL: DIVMTQSPSSLSAPVGDRVTITCQASQDIRNYINWFQQKPGKAPKLLIYAASRLQSGVPSRFSGSGSGTDFTLTISSLQPEDFATYYCQQSYSTPQWTFGQGTKVEIK
B9: CB-8-41 (antibody, human IgG1, V domains shown)
VH: EVQLVQSGAEVKKPGASVKVSCKASGYLFTSYGISWVRQAPGQGLEWMGWISAYTGNTNYAQKLQGRVTMTTDTSTSTAYMELRSLRSDDTAVYYCATLYGSGSLYYWGQGTLVTVSS
VL: DIVMTQSPSSLSAPVGDRVTITCQASQDIRNYINWFQQKPGKAPKLLIYAASHLQSGVPSRFSGSGSGTDFTLTISSLQPEDFATYYCQQSYSTPQWTFGQGTKVEIK

human FGFR1c/βKlotho receptor (human), P11362, sequence (P11362 22-822, chain 1 of 2): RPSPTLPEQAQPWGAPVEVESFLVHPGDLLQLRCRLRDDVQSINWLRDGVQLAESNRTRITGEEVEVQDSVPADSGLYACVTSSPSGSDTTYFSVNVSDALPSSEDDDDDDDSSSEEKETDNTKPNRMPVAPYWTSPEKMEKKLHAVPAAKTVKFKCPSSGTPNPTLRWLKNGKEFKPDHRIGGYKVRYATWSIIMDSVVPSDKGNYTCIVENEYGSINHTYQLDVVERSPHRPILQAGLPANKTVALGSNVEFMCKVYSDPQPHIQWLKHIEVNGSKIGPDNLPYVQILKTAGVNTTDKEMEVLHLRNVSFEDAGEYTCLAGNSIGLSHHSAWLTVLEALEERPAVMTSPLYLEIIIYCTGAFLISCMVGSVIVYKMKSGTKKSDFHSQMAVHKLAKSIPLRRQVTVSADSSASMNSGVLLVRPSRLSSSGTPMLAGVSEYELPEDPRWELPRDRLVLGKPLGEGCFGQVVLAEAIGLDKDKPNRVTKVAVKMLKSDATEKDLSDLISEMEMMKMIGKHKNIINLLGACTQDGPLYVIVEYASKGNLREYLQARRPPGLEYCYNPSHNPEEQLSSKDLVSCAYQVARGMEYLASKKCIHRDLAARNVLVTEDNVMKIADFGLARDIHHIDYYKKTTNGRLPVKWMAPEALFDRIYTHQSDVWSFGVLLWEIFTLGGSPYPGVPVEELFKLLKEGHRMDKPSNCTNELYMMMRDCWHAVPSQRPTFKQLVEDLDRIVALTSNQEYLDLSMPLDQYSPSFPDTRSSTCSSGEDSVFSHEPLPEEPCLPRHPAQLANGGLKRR
human FGFR1c/βKlotho receptor (human), P11362, sequence (chain, as listed by the source, chain 2 of 2): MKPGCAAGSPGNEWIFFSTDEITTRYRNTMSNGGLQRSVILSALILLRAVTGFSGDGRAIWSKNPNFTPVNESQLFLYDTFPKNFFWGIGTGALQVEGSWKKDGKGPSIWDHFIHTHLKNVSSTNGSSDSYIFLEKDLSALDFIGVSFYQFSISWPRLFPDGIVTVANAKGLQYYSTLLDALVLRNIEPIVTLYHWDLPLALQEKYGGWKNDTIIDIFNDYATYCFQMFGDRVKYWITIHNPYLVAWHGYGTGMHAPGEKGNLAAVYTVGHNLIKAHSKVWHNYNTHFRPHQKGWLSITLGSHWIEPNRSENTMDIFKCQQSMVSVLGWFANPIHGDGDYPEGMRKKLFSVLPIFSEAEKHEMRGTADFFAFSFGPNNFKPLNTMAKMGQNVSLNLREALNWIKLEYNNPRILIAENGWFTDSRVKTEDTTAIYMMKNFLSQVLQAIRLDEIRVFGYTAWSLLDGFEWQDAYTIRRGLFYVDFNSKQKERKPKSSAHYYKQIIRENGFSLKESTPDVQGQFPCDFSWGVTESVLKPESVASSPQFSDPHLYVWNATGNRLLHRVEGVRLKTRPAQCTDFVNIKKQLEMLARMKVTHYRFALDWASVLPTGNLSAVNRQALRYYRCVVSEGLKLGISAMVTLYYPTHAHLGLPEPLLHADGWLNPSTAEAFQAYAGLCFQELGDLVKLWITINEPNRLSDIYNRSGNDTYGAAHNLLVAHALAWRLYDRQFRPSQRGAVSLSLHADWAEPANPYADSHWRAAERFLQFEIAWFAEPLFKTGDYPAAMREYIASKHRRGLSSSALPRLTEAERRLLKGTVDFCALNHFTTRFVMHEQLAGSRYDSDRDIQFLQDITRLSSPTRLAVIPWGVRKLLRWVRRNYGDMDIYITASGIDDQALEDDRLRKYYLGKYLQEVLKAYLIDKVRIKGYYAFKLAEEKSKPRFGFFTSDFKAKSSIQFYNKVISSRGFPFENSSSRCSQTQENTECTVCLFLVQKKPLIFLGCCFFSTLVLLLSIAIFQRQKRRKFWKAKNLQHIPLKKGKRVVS

This experiment concerns the target human FGFR1c/βKlotho receptor (human), P11362. As to the kind of experiment: cell-based or functional assay.
B1 yielded an EC50, luciferase reporter-based assay (receptor activation) of 1.31 nM and an EC50 for antibody-induced cell activation, as determined by the reporter-based assay of 3.74 nM.

With B2, the EC50 for antibody-induced cell activation, as determined by the reporter-based assay was 0.68 nM.

For B3, the EC50 for antibody-induced cell activation, as determined by the reporter-based assay turned out to be 0.92 nM.

B4: the EC50 for antibody-induced cell activation, as determined by the reporter-based assay came to 0.66 nM.

Turning to B5, the EC50 for antibody-induced cell activation, as determined by the reporter-based assay was found to be 0.57 nM.

B6 came in with an EC50 for antibody-induced cell activation, as determined by the reporter-based assay of 0.95 nM.

In the case of B7, the EC50 for antibody-induced cell activation, as determined by the reporter-based assay came out at 0.89 nM.

In turn, B8 returned an EC50 for antibody-induced cell activation, as determined by the reporter-based assay of 1.39 nM.

Molecule B9 displayed an EC50 for antibody-induced cell activation, as determined by the reporter-based assay of 1.43 nM.

The values above are taken from patent US20250066509A1.
